Test [1] deals with human MET (soluble analyte in the Biacore assay) (human) (UniProt P08581). The experiment in a line: SPR (Biacore 2000): agent captured via goat anti-human antibody, human MET injected.
For test [2], the target named is full-length human MET (FL-MET) on cells (human) (UniProt P08581). The experiment in a line: FACS: inhibition of biotin-HGF binding to MET-transfected HEK-293T cells, agent at 0.16 µg/ml. (In general: A flow cytometer gives signals particle by particle.)
Test [3] has the same target. The test can be described thus: FACS blocking assay on MET-transfected HEK-293T cells; blocked ligand: biotinylated HGF, PE-streptavidin.
The target is the same in test [4]. The experiment in a line: FACS: inhibition of biotin-HGF binding to MET-transfected HEK-293T cells, agent at 10 µg/ml.
For test [5], the target named is T1, human MET (soluble analyte in the Biacore assay) (human, UniProt P08581 25-932). The test can be described thus: SPR (Biacore 2000): agent captured via goat anti-human antibody, human MET injected. On the procedure: (§1) The KD of monovalent version of anti-MET antibody 73R009, monovalent anti-MET antibody 5D5, and anti-MET/FZD8-Fc bispecific agent 315B06 were determined using a Biacore 2000 system from Biacore Life Sciences (GE Healthcare). A goat anti-human antibody (Invitrogen H10500) was coupled to a carboxymethyl-dextran (CM5) SPR chip using standard amine-based chemistry (NHS/EDC) and blocked with ethanolamine. Antibodies were diluted to a concentration of 10 μg/ml in HBS-P-BSA (0.01M HEPES pH7.4, 0.15M NaCl, 0.005% v/v Polysorbate 20, 10 μg/ml BSA) and captured onto the chip via the anti-human antibody. Human MET was serially diluted 2-fold from 300 nM to 37.5 nM in HBS-P-BSA and injected sequentially over the captured anti-MET antibodies. MET association and dissociation was measured at each concentration. After each antigen injection 5 μl of 100 mM H₃P0₄ was injected to remove the antigen-antibody complex and a subsequent injection performed. Kinetic data were collected over time and were fit using the simultaneous global fit equation to yield affinity constants (KD values) for each agent.
T1 sequence (P08581 25-932 limits assumed): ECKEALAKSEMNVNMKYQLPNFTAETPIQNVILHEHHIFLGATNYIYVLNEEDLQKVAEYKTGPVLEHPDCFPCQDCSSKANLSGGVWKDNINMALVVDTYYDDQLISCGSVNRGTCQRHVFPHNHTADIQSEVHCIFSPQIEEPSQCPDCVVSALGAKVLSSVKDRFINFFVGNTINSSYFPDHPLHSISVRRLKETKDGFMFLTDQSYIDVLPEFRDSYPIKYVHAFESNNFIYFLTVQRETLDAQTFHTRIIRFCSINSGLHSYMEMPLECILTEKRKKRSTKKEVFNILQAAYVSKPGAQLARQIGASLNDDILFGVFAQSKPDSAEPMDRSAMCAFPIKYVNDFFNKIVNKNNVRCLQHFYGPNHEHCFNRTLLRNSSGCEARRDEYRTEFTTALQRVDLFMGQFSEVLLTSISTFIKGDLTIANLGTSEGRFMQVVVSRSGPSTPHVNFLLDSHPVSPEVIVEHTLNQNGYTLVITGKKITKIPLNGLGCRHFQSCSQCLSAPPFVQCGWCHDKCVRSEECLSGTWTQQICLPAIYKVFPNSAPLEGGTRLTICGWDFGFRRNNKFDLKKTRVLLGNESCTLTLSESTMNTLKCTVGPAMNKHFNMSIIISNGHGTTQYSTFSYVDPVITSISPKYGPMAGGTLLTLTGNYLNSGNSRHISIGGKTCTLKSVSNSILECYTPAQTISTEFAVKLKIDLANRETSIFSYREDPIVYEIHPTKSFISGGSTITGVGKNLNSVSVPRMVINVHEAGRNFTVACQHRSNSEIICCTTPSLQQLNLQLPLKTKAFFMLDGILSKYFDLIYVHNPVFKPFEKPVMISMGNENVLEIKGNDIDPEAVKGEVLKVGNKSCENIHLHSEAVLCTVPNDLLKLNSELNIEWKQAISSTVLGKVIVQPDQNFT
In addition, the bispecific agent 315B06 appeared to have stronger affinity for human MET than anti-MET antibody 5D5.

The target of test [6] is T2, human Sema mutant Mut96,99 (F96L and Q99R; Sema-hCD4TM-GFP) on cells (human, UniProt P08581 25-515).
T2 construct: not shown: human CD4 transmembrane domain and GFP (display and reporter carrier at the C end)
T2 sequence (P08581 25-515 F96L/Q99R limits assumed): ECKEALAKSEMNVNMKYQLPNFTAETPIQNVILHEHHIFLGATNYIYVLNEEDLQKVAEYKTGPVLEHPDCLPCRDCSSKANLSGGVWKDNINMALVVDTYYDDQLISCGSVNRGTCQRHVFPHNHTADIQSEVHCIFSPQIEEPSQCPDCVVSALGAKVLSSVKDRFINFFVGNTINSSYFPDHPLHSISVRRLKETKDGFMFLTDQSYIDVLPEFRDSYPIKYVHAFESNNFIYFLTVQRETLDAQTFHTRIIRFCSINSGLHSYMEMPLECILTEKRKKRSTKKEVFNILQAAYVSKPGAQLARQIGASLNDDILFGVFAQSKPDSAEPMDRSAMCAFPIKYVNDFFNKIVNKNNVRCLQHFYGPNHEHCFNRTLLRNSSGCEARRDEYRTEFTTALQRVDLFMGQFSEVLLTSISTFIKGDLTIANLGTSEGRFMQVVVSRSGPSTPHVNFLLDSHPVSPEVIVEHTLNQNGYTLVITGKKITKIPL
The experiment in a line: FACS on transfected HEK-293T cells. On the procedure: (§2) To identify the MET epitope recognized by the anti-MET/FZD8-Fc bispecific agent, epitope mapping was performed. […] Therefore, site-directed mutagenesis was performed to create a series of human Sema mutants. Kunkel mutagenesis was used to replace specific amino acids in the human Sema sequence with the corresponding amino acids found in the mouse Sema sequence at predicted antibody-binding sites. The human Sema mutants were: Mut96,99 (F96L and Q99R), Mut96 (F96L), Mut99 (Q99R), Mut328 (Q328N), Mut331 (R331K), and Mut337,338 (L337P and N338S).
(§3) Mammalian expression plasmid vectors encoding a wild-type human Sema, a wild-type mouse Sema, a mouse/human Sema mutant wherein the 5′ end is mouse (aa 1-331) and the 3′ end is human (aa 332-515), and the human Sema mutants outlined above were generated by standard recombinant technology. These constructs comprise the transmembrane domain of a human CD4 protein and GFP (for example, Sema-hCD4TM-GFP). These expression constructs allow for expression of the Sema domain on the cell surface, as well as expression of GFP to monitor expression. […] The cells were washed and bound bispecific agents were detected with a secondary anti-human Fc antibody conjugated to allophycocyanin (APC). […] Labeled cells were analyzed by flow cytometry to measure the binding of 315B07 and 5D5/FZD8-Fc to the series of Sema mutants.

Test [7] has as its target T3, human Sema mutant Mut99 (Q99R; Sema-hCD4TM-GFP) on cells (human, UniProt P08581 25-515).
T3 construct: not shown: human CD4 transmembrane domain and GFP (display and reporter carrier at the C end)
The experiment in a line: FACS on transfected HEK-293T cells. The procedure: as §2, §3

Test [8] addresses T1, human MET (soluble analyte in the …). The test can be described thus: SPR (Biacore 2000) as described in Example 1. The procedure:
as §1
Antibody 73R010 was used in a variation of the anti-MET/FZD8-Fc bispecific agent, and this variant bispecific agent is referred to as 315B07.

Chain of full-length human MET (FL-MET) on cells (human) (P08581 25-1390 limits assumed): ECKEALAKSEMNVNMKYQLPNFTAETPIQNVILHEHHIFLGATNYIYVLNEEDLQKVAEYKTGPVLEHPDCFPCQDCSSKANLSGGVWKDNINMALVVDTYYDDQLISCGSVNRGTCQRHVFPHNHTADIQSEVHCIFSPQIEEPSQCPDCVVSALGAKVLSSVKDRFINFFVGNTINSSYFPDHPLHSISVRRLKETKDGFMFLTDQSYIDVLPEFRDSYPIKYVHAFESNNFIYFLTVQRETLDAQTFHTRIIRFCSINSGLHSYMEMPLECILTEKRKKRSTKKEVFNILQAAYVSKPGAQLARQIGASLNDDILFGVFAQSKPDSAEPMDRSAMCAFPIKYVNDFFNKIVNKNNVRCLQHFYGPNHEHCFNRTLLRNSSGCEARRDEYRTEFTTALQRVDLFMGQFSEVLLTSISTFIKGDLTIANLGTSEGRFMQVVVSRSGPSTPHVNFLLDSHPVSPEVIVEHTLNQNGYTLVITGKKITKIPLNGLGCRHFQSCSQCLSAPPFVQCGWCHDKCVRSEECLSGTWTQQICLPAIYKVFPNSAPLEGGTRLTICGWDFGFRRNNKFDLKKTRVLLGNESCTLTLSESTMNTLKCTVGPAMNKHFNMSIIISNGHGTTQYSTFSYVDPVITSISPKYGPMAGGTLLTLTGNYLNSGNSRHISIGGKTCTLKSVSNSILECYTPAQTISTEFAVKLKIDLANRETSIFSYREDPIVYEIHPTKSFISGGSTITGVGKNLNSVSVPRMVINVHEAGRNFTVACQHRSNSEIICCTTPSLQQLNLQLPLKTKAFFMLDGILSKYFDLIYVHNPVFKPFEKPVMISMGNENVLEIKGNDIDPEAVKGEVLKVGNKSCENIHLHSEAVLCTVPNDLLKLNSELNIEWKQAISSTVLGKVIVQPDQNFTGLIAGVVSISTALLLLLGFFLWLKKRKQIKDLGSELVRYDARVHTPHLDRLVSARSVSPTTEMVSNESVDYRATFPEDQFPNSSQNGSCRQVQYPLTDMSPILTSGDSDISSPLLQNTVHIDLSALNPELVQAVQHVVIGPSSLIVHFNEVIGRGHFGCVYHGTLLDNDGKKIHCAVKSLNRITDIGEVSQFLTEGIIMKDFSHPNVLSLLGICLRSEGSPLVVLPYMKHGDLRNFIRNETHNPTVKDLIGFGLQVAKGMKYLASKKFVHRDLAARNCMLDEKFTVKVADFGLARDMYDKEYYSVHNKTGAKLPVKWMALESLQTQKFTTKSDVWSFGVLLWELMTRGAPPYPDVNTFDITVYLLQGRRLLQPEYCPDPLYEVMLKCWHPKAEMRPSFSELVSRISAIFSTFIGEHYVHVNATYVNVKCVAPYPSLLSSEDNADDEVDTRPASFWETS
Chain of human MET (soluble analyte in the Biacore assay) (human) (P08581 25-932 limits assumed): as the sequence (P08581 25-932 limits assumed) above
T3 sequence (P08581 25-515 Q99R limits assumed): as the sequence (P08581 25-515 F96L/Q99R limits assumed) above, with L72F counted along it

As a reminder, the Kd is the concentration at which binding is half-saturated. A low value points to higher affinity. In test [1], monovalent anti-MET antibody 5D5 displayed a dissociation constant (Kd) of 7.2 nM. In addition, in test [2], the percent reduction of HGF binding to MET amounted to 28%. For the same molecule, in test [3], the % Binding of hHGF at 0.16 ug/ml antibody amounted to 14.3%, the % Binding of hHGF at 0.3 ug/ml antibody is 10.6%, the % Binding of hHGF at 0.625 ug/ml antibody worked out at 12% and the % Binding of hHGF at 1.25 ug/ml antibody came to 8.54%. Moreover, in test [3], the % Binding of hHGF at 2.5 ug/ml antibody amounted to 9.61%, the % Binding of hHGF at 5 ug/ml antibody amounted to 6.67%, the % Binding of hHGF at 10 ug/ml antibody was found to be 6.31% and the % Inhibition of hHGF binding at 0.3 ug/ml antibody came out at 47%. In test [3], the % Inhibition of hHGF binding at 0.625 ug/ml antibody worked out at 40%, the % Inhibition of hHGF binding at 1.25 ug/ml antibody amounted to 57%, the % Inhibition of hHGF binding at 2.5 ug/ml antibody worked out at 52% and the % Inhibition of hHGF binding at 5 ug/ml antibody was determined as 67%. Besides, in test [4], the percent reduction of HGF binding to MET was 70%.

B1: anti-MET/FZD8-Fc bispecific agent 315B06 (bispecific antibody, human IgG2, kappa)
heavy: QVQLQESGPGLVKPSETLSLTCTVTGTTITASYAWSWIRQPPGKGLEWMGYISYSGGTDYNPSLKSRITISRDTFKNQFSLKLSSVTAADTATYYCARKGAYWGQGTLVTVSSASTKGPSVFPLAPCSRSTSESTAALGCLVKDYFPEPVTVSWNSGALTSGVHTFPAVLQSSGLYSLSSVVTVPSSNFGTQTYTCNVDHKPSNTKVDKTVERKCCVECPPCPAPPVAGPSVFLFPPKPKDTLMISRTPEVTCVVVDVSHEDPEVQFNWYVDGVEVHNAKTKPREEQFNSTFRVVSVLTVVHQDWLNGKEYKCKVSNKGLPAPIEKTISKTKGQPREPQVYTLPPSREKMTKNQVSLTCLVKGFYPSDIAVEWESNGQPENNYKTTPPMLKSDGSFFLYSKLTVDKSRWQQGNVFSCSVMHEALHNHYTQKSLSLSPGK
light: DIVLTQSPATLSASPGEKVTLTCSASSSVSSSYLYWYQQKPGQAPKLLIYSTSNLASGVPARFSGSGSGTSYSLTISSLEPEDFATYYCHQWSSYPYTFGGGTKLEIKRTVAAPSVFIFPPSDEQLKSGTASVVCLLNNFYPREAKVQWKVDNALQSGNSQESVTEQDSKDSTYSLSSTLTLSKADYEKHKVYACEVTHQGLSSPVTKSFNRGEC
chain: ASAKELACQEITVPLCKGIGYNYTYMPNQFNHDTQDEAGLEVHQFWPLVEIQCSPDLKFFLCSMYTPICLEDYKKPLPPCRSVCERAKAGCAPLMRQYGFAWPDRMRCDRLPEQGNPDTLCMDYNRTDLTTTKVDKTVERKSCVECPPCPAPPVAGPSVFLFPPKPKDTLMISRTPEVTCVVVDVSHEDPEVQFNWYVDGVEVHNAKTKPREEQFNSTFRVVSVLTVVHQDWLNGKEYKCKVSNKGLPAPIEKTISKTKGQPREPQVYTLPPSREEMTKNQVSLTCLVEGFYPSDIAVEWESNGQPENNYKTTPPMLDSDGSFFLYSELTVDKSRWQQGNVFSCSVMHEALHNHYTQKSLSLSPGK
notes: Heterodimer with one anti-MET arm (heavy and light chain) and one FZD8-Fc soluble receptor arm; also called bispecific anti-MET/FZD8-Fc agent 315B06; 351B06 [sic]
In test [5], B1 showed an equilibrium dissociation constant (Kd) of 1.8 nM.

B2: anti-MET/FZD8-Fc bispecific agent 315B07 (bispecific antibody, human IgG2, kappa)
heavy: QVQLQESGPGLVKPSETLSLTCTVSGTTITASYAWSWIRQPPGKGLEWMGYISYSGGTDYNPSLKSRVTISRDTFKNQFSLKLSSVTAADTAVYYCARKGAYWGQGTLVTVSSASTKGPSVFPLAPCSRSTSESTAALGCLVKDYFPEPVTVSWNSGALTSGVHTFPAVLQSSGLYSLSSVVTVPSSNFGTQTYTCNVDHKPSNTKVDKTVERKCCVECPPCPAPPVAGPSVFLFPPKPKDTLMISRTPEVTCVVVDVSHEDPEVQFNWYVDGVEVHNAKTKPREEQFNSTFRVVSVLTVVHQDWLNGKEYKCKVSNKGLPAPIEKTISKTKGQPREPQVYTLPPSREKMTKNQVSLTCLVKGFYPSDIAVEWESNGQPENNYKTTPPMLKSDGSFFLYSKLTVDKSRWQQGNVFSCSVMHEALHNHYTQKSLSLSPGK
light: EIVLTQSPATLSLSPGERATLSCSASSSVSSSYLYWYQQKPGQAPRLLIYSTSNLASGIPARFSGSGSGTDFTLTISRLEPEDFAVYYCHQWSSYPYTFGQGTKLEIKRTVAAPSVFIFPPSDEQLKSGTASVVCLLNNFYPREAKVQWKVDNALQSGNSQESVTEQDSKDSTYSLSSTLTLSKADYEKHKVYACEVTHQGLSSPVTKSFNRGEC
chain: ASAKELACQEITVPLCKGIGYNYTYMPNQFNHDTQDEAGLEVHQFWPLVEIQCSPDLKFFLCSMYTPICLEDYKKPLPPCRSVCERAKAGCAPLMRQYGFAWPDRMRCDRLPEQGNPDTLCMDYNRTDLTTTKVDKTVERKSCVECPPCPAPPVAGPSVFLFPPKPKDTLMISRTPEVTCVVVDVSHEDPEVQFNWYVDGVEVHNAKTKPREEQFNSTFRVVSVLTVVHQDWLNGKEYKCKVSNKGLPAPIEKTISKTKGQPREPQVYTLPPSREEMTKNQVSLTCLVEGFYPSDIAVEWESNGQPENNYKTTPPMLDSDGSFFLYSELTVDKSRWQQGNVFSCSVMHEALHNHYTQKSLSLSPGK
notes: Heterodimer with one humanized anti-MET arm (73R010) and one FZD8-Fc soluble receptor arm; also called OMP-315B07; 3151307 [sic]
Regarding B2, the binding result in test [6] and in test [7] was “no binding” throughout. This molecule also gave an equilibrium dissociation constant (Kd) in test [8] of 0.126 nM.

B3: anti-MET antibody 73R009 (bivalent “parental” antibody) (antibody, human IgG2, kappa, V domains shown)
VH: QVQLQESGPGLVKPSETLSLTCTVTGTTITASYAWSWIRQPPGKGLEWMGYISYSGGTDYNPSLKSRITISRDTFKNQFSLKLSSVTAADTATYYCARKGAYWGQGTLVTVSS
VL: DIVLTQSPATLSASPGEKVTLTCSASSSVSSSYLYWYQQKPGQAPKLLIYSTSNLASGVPARFSGSGSGTSYSLTISSLEPEDFATYYCHQWSSYPYTFGGGTKLEIKR
In the case of B3, the dissociation constant Kd in test [5] was determined as 1.1 nM.

B4: monovalent version of anti-MET antibody 73R009 (antibody, V domains shown)
VH: QVQLQESGPGLVKPSETLSLTCTVTGTTITASYAWSWIRQPPGKGLEWMGYISYSGGTDYNPSLKSRITISRDTFKNQFSLKLSSVTAADTATYYCARKGAYWGQGTLVTVSS
VL: DIVLTQSPATLSASPGEKVTLTCSASSSVSSSYLYWYQQKPGQAPKLLIYSTSNLASGVPARFSGSGSGTSYSLTISSLEPEDFATYYCHQWSSYPYTFGGGTKLEIK
notes: Only the 73R009 variable regions can be tied to this molecule; also called monovalent anti-MET antibody 73R009; monovalent version of 73R009
In turn, B4 registered a Kd in test [5] of 1.4 nM.

The record behind these values is patent US20160319034A1 (ONCOMED PHARMACEUTICALS, published 2016).
